Assay: soluble on expression in E. coli; label from the status in PepcDB or PDB records

Sequence | soluble on expression in E. coli
MSLLFNTEDLKAIFQEVSLNPSDRLVCNNSNTIYLWQDNILRVQSDHETQYRSYNVELPFVPEQMVISPSGGLVAFHANSELYVMEVNEQSRLRKHFNTSLGIKKLLWHPLATYGLSFVILHDDSTIRIYDLEDLEPESITVFNRKSRSFGLSDHVESVCDIAFDPTGLTLYLLSSFNYCDIYAIHPCLPKNFSLRSNDTSNVTSRTKNGSLADYMLHKSLSLYNSLDKQLKLISGSDPDVESDYLTLKHDLLKQIQFFDNYKKNDGIDTFTSKAIRNSVPQGPFIIKKFPTALNAKEVTGLTIIPVGERLGLLNLQFIDGTNVVLFSDSEIVMSWSLRSNTTFNNLSVITMFNAKGQCQLLNSSEPKLVFTGDSSTTIMEMPWLEPLAQCIRLHDFSIIDDVKFENKIRTVSGTFLGVLSTLSGDILYNGNSFKVIESNDKSTTQKPINRTDEVKYTYKPSLPTSGKELDMLLTKYKTEANGFISGIPDSLAPLPLKNEGHHHHHH | soluble
MSLLLPANEQRPVVDIFVEGRRISAREGETIAAALLNAGIVPFRRTPVSGQPRAPLCLMGVCFECLVEVDGAQNVQSCMVRVNAGMQVGLPTGARRAGDGEGHHHHHH | not soluble
MSLMESWLIPAAPVTVVEEIKKSRFITMLAHTDGVEAAKAFVESVRAEHPDARHHCVAWVAGAPDDSQQLGFSDDGEPAGTAGKPMLAQLMGSGVGEITAVVVRYYGGILLGTGGLVKAYGGGVNQALRQLTTQRKTPLTEYTLQCEYHQLTGIEALLGQCDGKIINSDYQAFVLLRVALPAAKVAEFSAKLADFSRGSLQLLAIEEEGGSHHHHHH | soluble
MSLMGYKNNRVGYQKELLTSRAVIKKDNYAIIPHDGLVQNAVPGFENVDISILGSPKLGATFVDYIATFHKNGQQTTGFGGDGIQTLVYVIDGRLRVSDGQETHELEAGGYAYFTPEMKMYLANAQEADTEVFLYKKRYQPLAGHQPYKVVGSIHDQQPEEYEGMTDVLLWSLLPKEFDFDMNMHILSFEPGASHAYIETHVQEHGAYLISGQGMYNLDNEWYPVEKGDYIFMSAYVPQAAYAVGREEPLMYVYSKDANREPELEGGSHHHHHH | soluble
MSLMKFIIKLFPEITIKSQSVRLRFIKILTGNIRNVLKHYDETLAVVRHWDNIEVRAKDENQRLAIRDALTRIPGIHHILEVEDVPFTDMHDIFEKALVQYRDQLEGKTFCVRVKRRGKHDFSSIDVERYVGGGLNQHIESARVKLTNPDVTVHLEVEDDRLLLIKGRYEGIGGFPIGTQEDVLSLISGGFDSGVSSYMLMRRGCRVHYCFFNLGGAAHEIGVRQVAHYLWNRFGSSHRVRFVAINFEPVVGEILEKIDDGQMGVILKRMMVRAASKVAERYGVQALVTGEALGQVSSQTLTNLRLIDNVSDTLILRPLISYDKEHIINLARQIGTEDFARTMPEYCGVISKSPTVKAVKSKIEAEEEKFDFSILDKVVEEANNVDIREIAQQTEQEVVEVETVNGFGPNDVILDIRSIDEQEDKPLKVEGIDVVSLPFYKLSTKFGDLDQNKTWLLWCERGVMSRLQALYLREQGFNNVKVYRPEGGSHHHHHH | soluble
MSLMMFRYANFQIIKKEQELVISRGIIEKHQVTIPLRKIQAIKIKENIIRQLFGFVTVSIVSAGGGDREKEEGALTILFPMIHKKKLPHMLRTFTPEYTLEENCRRLPRREGHHHHHH | not soluble
MSLNAGKVVQTAKLFQDIHPEERLEKTLVDDRFAALREVIAGRTDGGQSGGGTMQIASLLTMLNEYYTQLTIADSALAAGTLPARITAADKLQLEAAKLPAPLKNILLDLTKQGTRKINAGTGDVLNTQMEAMMGDDCRDAIDGRYPFADSPQEVSAEDFNRIFASGGVLDAFWSKQLAPLADTASDPWRYKPTEGNMTLQGPDLTPFQQAKQIRSVFFNSEGGKKFSWSMQISVVDMDPAIMELVIDIDGQVLRYAHGPDRPLKVTWPGPRNGSMAEITASPRIRQDTSTLLTGGPWALFHLLDAGMVQETAVRGRQLVEYDFDGRRVVLEITAGRDFNPVSRELLQNFSCPARALEGHHHHHH | not soluble
MSLNALYNSLKQRLESGEWLAGQRMPSIRKLASTSEASYHDAVTAYARLVSEGLLSASPGRGYFVNSGASQAVSPREPECMSADPLFRLLQAGPQYTKLGGGWLPPAWRDTELLAKAIRRTARLEQSSLAEYGDISGYLPMRKQLCVHMKRLTRIDIRPSQVLSTLGATQGLDLVARLLIKAGDHVFVDEPGNGNLIRLIQLAGGHVVGVRRTQDGPDIAEMESYLAKHTVKAFFCNSTFHNPTGSNISPHNAFKVLRLAVEHEFFVVEDDVYGDFSPTVRQTFAELDNLDRVIYIGSFSKCLSASLRVGYIACSQELIEPLTRLKLLTCVAVPAFCERFVNTILADGTYARHMQDVQQRLISQQVQTQRSLLARGWKFDIAPQGGMFIWAYHPDITDLQPFMTKLEQHRILLMPGSAFSVTRDYQRFARINCTHFSEAVEAHFSV | not soluble
MSLNAQTKSLHQLQQEFVDLRCGMFIHFNMPTFFNEDWPDPDAAPELFNPVRMDCKQWAKAAKSANMTYGCLTTKHHSGFCIWDTKTTDYSVMSSPFKRDVVKEYADAFRAEGMKVMLYYSILDTHARLRPKCITPQHIEMIKEQLRELLTNYGEITALIIDGWDAPWSRISYDDVPFEDIYRLVKSIQPNCLVMDLNAAKYPAEALFYTDIKSYEQGAGQHISKDTNRLPALSCLPLQQNWFWKESFPTTPVKSPAQMVNDNIIPMGKSYCNFILNVAPNRDGLMDANALKALKEIGKLWKNDGRVATVPEADAPIISSNIAKYQPAEGTWSSDYAIMDFANDDDFGTCWNSNPEVKVPWYSVTFEREKSFNMVVITDRNNDRLQEYRLEYRAGGTWKPLYEGKAPTGLRVKIHRFDTVWGDAVRMTVLNSNGTTSIAEFGVYCEREGHHHHHH | soluble
MSLNDQYEALYQTFRWLVPTQFNIADACCHRWAASSPDARRIAIYYEDEAGNREVWTYARLAEAANQLANGLVKMGVERGDRVGVVLGQRPETVVAHMAIYSVGAVVLPLSPLFGPEALESRLRDADARVAIVDYASSANLLAISDNCPNLHQIIGIGFADERVLPWRSLLARQPNEFKMVATRASDPAILMYTSGTTGAPKGALLPHSVLIGNLPGFVASQDWFPRPGDVFWSPADWAWTGGMMDALLPTLYFGHPIVGTRGRFTPERAFELMERYQVTNTFLFPTALKMMMKSVPEPRGRYQLALRSIMSAGESVGETVFEWCEQALGITPNEMFGQTELNYVVGNSNRRWPARPGSMGRPYPGHRVAVIDEAGRPVKPGETGEVALNRFDIHGFPDPVLFLGYWRNEAATAAKFTDDWCRTGDLASIDADGYLWYAGRADDVFKSAGYRIGPGEIENCLLGHPAVANAAVVPKPDAERGALVKAYVVLTPEYQGRDPDSITQVLQEHVRDRLAPYEYPKEIEYVDALPMTTTGKIQRAVLRRREAERASGAHSEGHHHHHH | not soluble
MSLNEPDGVLSYQRPDEEAVVDQGGTSTILNIHYEKEELEGHRTLYVGVRMPLGRQSHRHHRTHGQKHRRRGGRGKGASQGEEGLEALAHDTPSQRVQFILGTEEDEEHVPHELFTELDEICMKEGEDAEWKETARWLKFEEDVEDGGERWSKPYVATLSLHSLFELRSCLINGSVLLDMRASSIEEISDLILDQQELLRDLSDSVRVKVREALLKKHHHQNERRRNNLIPIVRSFAEVGKKQSDPHSMDRDGQTVSPQSATNLEVKNGVNCEHSPVDLSKVDLHFMKKIPTGAEASNVLVGEVDTLDRPIVAFVRLSPAVLLSGLTEVPIPTRFLFILLGPVGKGQQYHEIGRSMATIMTDEIFHDVAYKAKERDDLLAGIDEFLDQVTVLPPGEWDPSIRIEPPKNVPSQEKRKMPGVPNGNVCHIEPEPHGGHSGEGHHHHHH | soluble
MSLNEPLPDRQTELPAVKKENHGEYLQPRDLSKIPNTAFGDQVKRGYSLFVNSQQMRGKYVGNEQNCVNCHMEAGRKANAAPLWAAYMAYPAYRKKNDRVNSYADRIQGCFEYSMNGKAPAYDSPEIVALSAYAYWLAMGGLLDEGHHHHHH | soluble
MSLNERAKIKIIPLGGINEIGKNITAIEYKEDIIIIDCGLKFPDDDMFGIDIVIPDVSYLIKNSEKIKGIFLTHGHEDHIGALPYVLRQLNVPVYGTKLTLGIVETKLKEHGLLASTELVRVKPKDIIKLDSVSVEFIKTNHSIADSVAIAVHTPLGVVLHTGDFKIDYTPIDGEMMDFGRLAELGRKGVLVLMADSTNVERPGYTMTEKVVGETFLRLFGKAKGRLIVATFASNVHRIQQIITAAEAYEKKVAVSGRSMENIVQVAIELGYLTVGKDVLVPVDQISKYPNEKIVVITTGSQGEPMSALARMAASEHRKINVIPGDTVIISATPIPGNEKFVSKVINQLFKKGAQVIYDSQEKIHVSGHACQEELKLMQALVKPKFFVPVHGEYRHLKKHGELAMEVGLSEKNLLIPENGDVIEVAREGHHHHHH | soluble
MSLNGFCARLRAITFNERLKMKIAVLLSGGVDSSYSAYSLKEQGHELVGIYLKLHASEKKHDLYIKNAQKACEFLGIPLEVLDFQKDFKSAVYDEFINAYEEGQTPNPCALCNPLMKFGLALDHALKLGCEKIATGHYARVKEIDKVSYIQEALDKTKDQSYFLYALEHEVIAKLVFPLGDLLKKDIKPLALNAMPFLGTLETYKESQEICFVEKSYIDTLKKHVEVEKEGVVKNLQGEVIGTHKGYMQYTIGKRKGFSVKGALEPHFVVGIDAKKNELIVGKKEDLATHSLKAKNKSLTKDFKDGEYFIKARYRSVPTKAFVSLKDGMIEVEFKEPFYGVAKGQALVVYKDDILLGGGVIVEGHHHHHH | soluble
MSLNGQNTISDIGDATEDQIKDVIQIMNDNIDKFLERQERVSLLVDKTSQLNSSSNKFRRKAVNIKEIMWWQKVKNITLLTFTIILEGHHHHHH | not soluble
MSLNHILETLIKLLKVGMEAIDRKGLIAILTSSIGNDEMDDSEQAVMVYNELIDKLQLNIPKDVDYRPNIYSYFGIQKKPNDTILVEMMISIFHIKRFDSELFVFKDKGWQKVNEDELQGLISKMIQVLLVDYKPSLSILKNVVVGLQNSIDVEELVENKQYIGCGHNMFNLDAFEVVGNSIKIFPATRLNLELVKSDVITEKTPPHFNRYMLEFANFDSDLQYFLFQHIAVLLTANTKYRRALLLYGGAKNGKSVFINLVRSFFYSEDIVSKALNELQGRFDKESLVGKKLMASDEIGESRIQEKIVNDLKKLVSVEPVHVDRKGKTQVETTLDLKLAFGTNARLNFPSAHAKALERRIAVIPCEYYVEKADPDLIEKLQDEKKEIFLYLMYVYKQIVKNDIEYLQNDRVTEISHDWLNFGYEFVSSKSASIANQKACINLLRKLIEIKPGSRIKVSELNKVINEEIKVSSQVIKQLIQANFDTQTKLYNGYDYWIDLGWKEADKKEIHDISKKDNIISLDKNENITDDETLDEENLDFDWEDFDDEGHHHHHH | soluble
MSLNIKRFVSWDCVNGIKGVLNENGKFSNNPMGVLNWIKAQTSEIPTILLVRDFHKFYDDPSISRTIKELSSSLRETNNNLILSSHILPSSEELDDLITILNLPLPDLSELTALIKKIAFNTDSDLSEQDLNELAIASSGLSEIKVKQVTAKALAQRGKISEGHHHHHH | not soluble
MSLNILIIGPSWVGDMMMSHSLYQQLKIQYPNCNIDVMAPNWCKPLLARMPEVRKAIEMPLGHGAFELGTRYRLGKSLREQYDMAIVLPNSLKSAFIPFFAKIVHRRGWKGESRYILLNDLRANKKDYPMMVQRYVALAFEKDVIPKADDIPVLKPYLTVEPAQQAETLKKFEKQTALLGERPIIGFCPGAEFGPAKRWPHYHYAKLAEMLITQGYAVALFGSAKDEPVGEEIRQALPEELREFCVNLAGKTNLNEAVDLIANCTAVVTNDSGLMHIAAAVNRPLIALYGPTSPQYTPPLSDKATIIRLIEGELIKVRKGDKEGGYHQSLIDITPEMALEKLNELLAKEGGSHHHHHH | soluble
